# Assay results as given in publication PMC2171992.
# How the values were obtained:
# [1] = biological target: muscle actin (UniProt P68135); assay: seeded actin assembly kinetics
# [2] = biological target: muscle actin (UniProt P68135); assay: apparent critical concentration for actin polymerization at steady state
Kd of capping (barbed end; fit with capping and monomer binding) [1],Kd of monomer binding (fit with capping and monomer binding) [1],k+2 of capping (barbed end; fit with capping and monomer binding) [1],Kd [2],Kd [1],koff [1],Substance
1.71 µM,2.86 µM,2100 M⁻¹ s⁻¹,,,,"Cap1 C-30, synthetic peptide corresponding to the Cap1 COOH-terminal 30 residues, 239–268 (from UniProt P28495 239-268)"
,,,> 50 µM,10.3 µM,0.00233 s⁻¹,Cap1Δ(239–268)/Cap2 (from UniProt P28495 1-238; P13517 1-287) (complex)
